# Measurements as given in publication PMC4333400 (Nucleic Acids Research, 2015).
# Where two headings read alike, the source gives them in different places.
# B1: DNA 'a' (14 bp) (dsDNA)
# DNA 1: TTGATATATACTGT
# DNA 2: ACAGTATATATCAA
# B2: DNA 'cab' (dsDNA)
# DNA 1: CTCGTATCTACAATGTAGATTGATATATACTGTATCTACATATGATAGCGT
# DNA 2: ACGCTATCATATGTAGATACAGTATATATCAATCTACATTGTAGATACGAG
# B3: DNA 'c' (dsDNA)
# DNA 1: GTATCTACAATGTAGATTG
# DNA 2: CAATCTACATTGTAGATAC
# B4: DNA 'a' (EMSA probe) (dsDNA)
# DNA 1: TTGATATATACTGT
# DNA 2: ACAGTATATATCAA
# B5: DNA 'b' (dsDNA)
# DNA 1: ATATACTGTATCTACATAT
# DNA 2: ATATGTAGATACAGTATAT
# B6: DNA 'a' (15 bp, altered ends) (dsDNA)
# DNA 1: CGTGATATATACTGC
# DNA 2: GCAGTATATATCACG
# Tests used:
# EcMazE1-50 [1] = biological target: T1, EcMazE1-50 (Escherichia coli, UniProt P0AE72 1-50); assay: ITC
# T1 chain: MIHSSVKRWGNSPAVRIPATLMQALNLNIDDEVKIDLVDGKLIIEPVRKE
# EcMazE full-length = EcMazE full-length (Escherichia coli, UniProt P0AE72 1-82); assay: ITC
# Sequence of EcMazE full-length (P0AE72 whole entry): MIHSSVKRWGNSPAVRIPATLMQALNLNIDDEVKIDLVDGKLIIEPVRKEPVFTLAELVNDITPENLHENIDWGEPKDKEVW
# EcMazE1-50 [2] = biological target: T1, EcMazE1-50; assay: ITC
# [3] = biological target: EcMazE full-length;EcMazF (Escherichia coli;Escherichia coli, UniProt P0AE72;P0AE70 1-82;1-111, |); assay: EMSA
# Sequence of EcMazE full-length;EcMazF (P0AE70 whole entry, one chain of several): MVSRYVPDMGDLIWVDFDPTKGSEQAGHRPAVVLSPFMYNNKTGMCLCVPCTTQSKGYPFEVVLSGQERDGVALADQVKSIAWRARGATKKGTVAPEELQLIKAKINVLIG
# NMR solution structure = biological target: the molecule itself; assay: NMR solution structure
# EcMazE1-50 [4] = biological target: T1, EcMazE1-50; assay: NMR
binder,measurement,setting,value
B1,Kd,EcMazE1-50 [1],5600 ± 300 nM
same,Kd,EcMazE full-length,5100 ± 200 nM
B2,Kd,EcMazE1-50 [2],600 ± 500 nM
B3,Kd,EcMazE1-50 [1],600 ± 200 nM
B4,binding result,[3],binds
MIHSSVKRWGNSPAVRIPATLMQALNLNIDDEVKIDLVDGKLIIEPVRKE (domain or fragment) [truncated EcMazE^1–50 (N-terminal DNA binding domain of Escherichia coli antitoxin MazE)],stoichiometry N,NMR solution structure,2
B5,Kd,EcMazE1-50 [1],2100 ± 600 nM
B6,binding result,EcMazE1-50 [4],binds
